Experimental data as given in patent publication US5985836A, “Alpha-1 proteinase inhibitor binding peptides” (Bayer Corporation, priority 1998, dated 1999).
Ends that are not written are not given here.

Tests used:
A1PI [1] = target: T1, A1PI (Homo sapiens, UniProt P01009); experiment: Capture and elution of active A1PI with 2M urea buffer (elastase inhibition activity assay and immunonephelometry); type: binding
T1 construct: Human plasma is currently the only approved source of therapeutic AlPI
T1 sequence (P01009 25-418): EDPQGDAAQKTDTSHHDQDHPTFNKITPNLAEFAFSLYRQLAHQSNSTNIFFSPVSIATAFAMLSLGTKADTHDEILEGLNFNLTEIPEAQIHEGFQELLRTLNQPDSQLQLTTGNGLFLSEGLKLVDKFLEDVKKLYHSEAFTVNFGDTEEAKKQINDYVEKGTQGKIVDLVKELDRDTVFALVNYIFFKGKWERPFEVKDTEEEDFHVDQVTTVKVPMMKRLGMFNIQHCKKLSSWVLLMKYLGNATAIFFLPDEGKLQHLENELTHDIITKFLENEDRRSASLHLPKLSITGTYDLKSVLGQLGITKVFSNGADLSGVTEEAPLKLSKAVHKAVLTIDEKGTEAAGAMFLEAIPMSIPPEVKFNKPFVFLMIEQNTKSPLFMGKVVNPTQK

A1PI [2] = target: T1, A1PI; experiment: A1PI yield from dialyzed (aqueous) Effluent II+III; type: binding; settings: 4° C.
Protocol: Effluent II+III was dialyzed against equilibration buffer at 4° C. to remove the ethanol using a 15,000 molecular weight cut-off membrane. Nephelometry of the Eff. […] A portion of the identified sequences were assayed under the same conditions applied for neat Eff. II+III at 4° C. […] II+III compared to the neat, ethanol-containing feed. The binding strength differed for the aqueous feed as more AlPI eluted in 1M NaCl for the aqueous feed. The AlPI eluted in the 1M NaCl fractions was not as enriched as that eluted in the acid eluates.

A1PI [3] = target: T1, A1PI; experiment: Purification of A1PI from Effluent II+III on peptide column, A1PI mass balance; type: binding; settings: A1PI, 1 ml Eff. II+III, 4° C.
How it was run: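 First, 1 ml of the ethanolic Cohn intermediate (20% ethanol, ~1 mg/ml A1PI) is injected and held for a 10 min residence time. Columns are then eluted stepwise at a constant 865 μl/min with 1M NaCl, 3M NaCl and finally 2% acetic acid, all at 4° C.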

A1PI [4] = target: T1, A1PI; experiment: A1PI binding on peptide-resin column, injection of 1 mg A1PI in equilibration buffer; settings: 1 mg A1PI in equilibration buffer
How it was run: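 Percent of total eluted A1PI per fraction (flowthrough, NaCl steps, 2% acetic acid) determined by A280 integration or immunonephelometry. Columns of peptide-derivatized A-Totda-Toyopearl resin (0.1 mmole/g) received 1 mg A1PI at 4 °C or 20 °C, flow 865 or 523 μl/min.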

Immunoglobulin A (IgA) = experiment: Purification from Effluent II+III, IgA mass balance; type: binding, human; settings: 1 ml Eff. II+III, 4° C.
Protocol: (§1) Sequences 1-11 and 15 were assayed with Effluent II+III (Eff. II+III). Eff. II+III is a process intermediate in the Cohn plasma fractionation process. The feed stream contains 20% (by volume) ethanol, 20-25 mg/ml hSA and approximately 1 mg/ml AlPI. The stream also contains other proteins including anti-thrombin III (AT3), immunoglobin G (IgG), immunoglobin A (IgA), apolipoprotein alpha-1 (Apo A-1), transferrin (Trf), haptoglobin (Hpt), and alpha-1 acid glycoprotein (AAG) at concentrations ranging from 0.1-1 mg/ml.
(§2) The columns were assayed using the same technique as the hSA+AlPI experiments, allowing for a 10 minute residence time followed by a constant flow rate of 865 μl/min with step elutions of 1M NaCl, 3M NaCl, and 2% acetic acid. All experiments were conducted at 4° C. The mass balances for the injection of 1 ml Eff. […] The AlPI was enriched from 3% of the total protein in the feed to upwards of 50% in the acid eluate.

Immunoglobulin G (IgG) = experiment: Purification from Effluent II+III, IgG mass balance; type: binding, human; settings: 1 ml Eff. II+III, 4° C.
Protocol: as §1, §2

[5] = target: T2, apolipoprotein alpha-1 (Apo A-1) (Homo sapiens, UniProt P02647); experiment: Purification from Effluent II+III, Apo A-1 mass balance; type: binding; settings: 1 ml Eff. II+III, 4° C.
T2 construct: Eff; II+III is a process intermediate in the Cohn plasma fractionation process; tissue Bayer Corporation (Clayton, N.C.); host or cells: plasma fraction: Cohn Effluent II+III
T2 sequence (P02647 19-267): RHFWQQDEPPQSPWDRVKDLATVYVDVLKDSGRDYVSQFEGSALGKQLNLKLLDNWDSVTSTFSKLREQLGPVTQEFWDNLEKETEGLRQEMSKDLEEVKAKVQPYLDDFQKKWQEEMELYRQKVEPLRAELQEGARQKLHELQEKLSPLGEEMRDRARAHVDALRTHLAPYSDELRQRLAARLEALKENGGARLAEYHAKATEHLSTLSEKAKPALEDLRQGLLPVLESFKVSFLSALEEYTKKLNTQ
Protocol: as §1, §2

A1PI [6] = target: T1, A1PI; experiment: A1PI purification from 5 mg hSA + 1 mg A1PI on peptide column, A1PI mass balance; type: binding; settings: A1PI, 5 mg hSA + 1 mg A1PI; for Percent Eluted by Fraction, 1M NaCl / Percent Eluted by Fraction, 2% Ac. Acid / Percent Eluted by Fraction, 3M NaCl / Percent Eluted by Fraction, Flow: relative to total eluted
How it was run: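 Mass balance by immunonephelometry of fractions from step elutions (1M NaCl, 3M NaCl, 2% acetic acid, neutralised with Tris) at 865 μl/min. Sample was a mixture of 1 mg A1PI and 5 mg hSA held 10 min on peptide-derivatised Toyopearl columns (0.1 mmole/g) at 4 °C or 20 °C.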

[7] = 1 ml dialyzed Eff. II+III (ethanol removed)
[8] = A1PI, 1 ml dialyzed Eff. II+III
[9] = * as in Tables 4, 5 (below detection limit)
[10] = 20° C., * Below detection limit

Q: Which “Mass A1PI in Urea Eluate (mg), Activity” value (A1PI [1]; 1 mg A1PI, 4° C., eluted with 2M urea, pH 6, elastase inhibition activity assay) does the source give for “Neat A1PI: freshly dissolved human alpha-1 proteinase inhibitor fed to the columns” here?
A: The value was 0.87 mg.

Q: What about the “Mass A1PI in Urea Eluate (mg), Nephelometry” value (A1PI [1]; 1 mg A1PI, 4° C., eluted with 2M urea, pH 6, immunonephelometry) of the same substance?
A: The value was 1.10 mg.

Q: And the Specific Activity (A1PI [1]; activity assay mass relative to immunonephelometry mass)?
A: The Specific Activity was 0.79 mg/mg.

Q: What about the “Specific Activity” value (A1PI [1]; mass of A1PI by activity assay relative to immunonephelometry, urea eluate, 4° C.) of the same substance?
A: Its value is 0.79 mg/mg.

Q: Which “Mass A1PI per Eluate Fraction, 1M NaCl” value (A1PI [2]; [7]) does the source give for ARWYIH here?
A: The value was 0.18 mg.

Q: What about the “Mass A1PI per Eluate Fraction, 2% Acetic Acid” value (A1PI [2]; [7]) of the same substance?
A: Its value is 0.20 mg.

Q: And the “Mass A1PI per Eluate Fraction, Flowthrough” value (A1PI [2]; [7])?
A: The value was 0.24 mg.

Q: And the “Percent Eluted by Fraction, 1M NaCl” value (A1PI [2]; [8])?
A: The value was 30%.

Q: What about the “Percent Eluted by Fraction, 2% Acetic Acid” value (A1PI [2]; [8]) of the same substance?
A: Its value is 32%.

Q: What about the “Percent Eluted by Fraction, Flowthrough” value (A1PI [2]; [8]) of the same substance?
A: Its value is 39%.

Q: What about the “Percent Eluted by Fraction, 1M NaCl” value (A1PI [3]) of the same substance?
A: The value was 7%.

Q: What about the “Percent Eluted by Fraction, 2% Acetic Acid” value (A1PI [3]) of the same substance?
A: The value was 75%.

Q: What about the “Percent Eluted by Fraction, 3M NaCl” value (A1PI [3]) of the same substance?
A: Its value is 0%.

Q: What about the “Percent Eluted by Fraction, Flow” value (A1PI [3]) of the same substance?
A: Its value is 18%.

Q: And the “Mass Protein per Eluate Fraction, 1M NaCl” value (A1PI [3]; [9])?
A: The value was 0.08 mg.

Q: What about the “Mass Protein per Eluate Fraction, 2% Acetic Acid” value (A1PI [3]; [9]) of the same substance?
A: Its value is 0.81 mg.

Q: And the “Mass Protein per Eluate Fraction, Flow” value (A1PI [3]; [9])?
A: Its value is 0.20 mg.

Q: What about the “Percent A1PI Eluted by Fraction Based on Absorbance at 280 nm, 1M NaCl” value (A1PI [4]; 4° C.) of the same substance?
A: Its value is 55%.

Q: And the “Percent A1PI Eluted by Fraction Based on Absorbance at 280 nm, 2% Acetic Acid” value (A1PI [4]; 4° C.)?
A: Its value is 45%.

Q: And the “Percent A1PI Eluted by Fraction Based on Absorbance at 280 nm, Flowthrough” value (A1PI [4]; 4° C.)?
A: The value was 0%.

Q: And the “Percent A1PI Eluted by Fraction, 1M NaCl” value (A1PI [4]; 20° C.)?
A: The value was 84%.

Q: And the “Percent A1PI Eluted by Fraction, 2% Acetic Acid” value (A1PI [4]; 20° C.)?
A: The value was 16%.

Q: What about the “Percent A1PI Eluted by Fraction, Flowthrough” value (A1PI [4]; 20° C.) of the same substance?
A: The value was 0%.

Q: And the “Percent Eluted by Fraction, 1M NaCl” value (Immunoglobulin A (IgA))?
A: Its value is 18%.

Q: And the “Percent Eluted by Fraction, 2% Acetic Acid” value (Immunoglobulin A (IgA))?
A: Its value is 56%.

Q: And the “Percent Eluted by Fraction, 3M NaCl” value (Immunoglobulin A (IgA))?
A: Its value is 0%.

Q: And the “Percent Eluted by Fraction, Flow” value (Immunoglobulin A (IgA))?
A: The value was 25%.

Q: What about the “Mass Protein per Eluate Fraction, 1M NaCl” value (Immunoglobulin A (IgA); [9]) of the same substance?
A: Its value is 0.07 mg.

Q: And the “Mass Protein per Eluate Fraction, 2% Acetic Acid” value (Immunoglobulin A (IgA); [9])?
A: Its value is 0.21 mg.

Q: And the “Mass Protein per Eluate Fraction, Flow” value (Immunoglobulin A (IgA); [9])?
A: Its value is 0.09 mg.

Q: And the “Percent Eluted by Fraction, 1M NaCl” value (Immunoglobulin G (IgG))?
A: The value was 0%.

Q: And the “Percent Eluted by Fraction, 2% Acetic Acid” value (Immunoglobulin G (IgG))?
A: The value was 7%.

Q: What about the “Percent Eluted by Fraction, 3M NaCl” value (Immunoglobulin G (IgG)) of the same substance?
A: Its value is 0%.

Q: And the “Percent Eluted by Fraction, Flow” value (Immunoglobulin G (IgG))?
A: The value was 93%.

Q: What about the “Mass Protein per Eluate Fraction, 2% Acetic Acid” value (Immunoglobulin G (IgG); [9]) of the same substance?
A: Its value is 0.02 mg.

Q: And the “Mass Protein per Eluate Fraction, Flow” value (Immunoglobulin G (IgG); [9])?
A: Its value is 0.23 mg.

Q: And the “Percent Eluted by Fraction, 1M NaCl” value [5]?
A: Its value is 0%.

Q: And the “Percent Eluted by Fraction, 2% Acetic Acid” value [5]?
A: Its value is 100%.

Q: And the “Percent Eluted by Fraction, 3M NaCl” value [5]?
A: Its value is 0%.

Q: And the “Percent Eluted by Fraction, Flow” value [5]?
A: Its value is 0%.

Q: And the “Mass Protein per Eluate Fraction, 2% Acetic Acid” value [5, 9]?
A: The value was 0.29 mg.

Q: What about the “Mass Protein per Eluate Fraction, 1M NaCl” value (A1PI [6]; 4° C., * Below detection limit) of the same substance?
A: Its value is 0.33 mg.

Q: What about the “Mass Protein per Eluate Fraction, 2% Ac. Acid” value (A1PI [6]; 4° C., * Below detection limit) of the same substance?
A: Its value is 0.41 mg.

Q: And the “Mass Protein per Eluate Fraction, 3M NaCl” value (A1PI [6]; 4° C., * Below detection limit)?
A: Its value is 0.04 mg.

Q: What about the “Percent Eluted by Fraction, 1M NaCl” value (A1PI [6]; 4° C.) of the same substance?
A: The value was 43%.

Q: And the “Percent Eluted by Fraction, 2% Ac. Acid” value (A1PI [6]; 4° C.)?
A: The value was 53%.

Q: What about the “Percent Eluted by Fraction, 3M NaCl” value (A1PI [6]; 4° C.) of the same substance?
A: Its value is 5%.

Q: What about the “Percent Eluted by Fraction, Flow” value (A1PI [6]; 4° C.) of the same substance?
A: Its value is 0%.

Q: And the “Mass Protein per Eluate Fraction, 1M NaCl” value (A1PI [6]; [10])?
A: Its value is 0.16 mg.

Q: What about the “Mass Protein per Eluate Fraction, 2% Ac. Acid” value (A1PI [6]; [10]) of the same substance?
A: Its value is 0.15 mg.

Q: What about the “Mass Protein per Eluate Fraction, Flow” value (A1PI [6]; [10]) of the same substance?
A: Its value is 0.67 mg.

Q: And the “Percent Eluted by Fraction, 1M NaCl” value (A1PI [6]; 20° C.)?
A: Its value is 16%.

Q: And the “Percent Eluted by Fraction, 2% Ac. Acid” value (A1PI [6]; 20° C.)?
A: Its value is 15%.

Q: And the “Percent Eluted by Fraction, 3M NaCl” value (A1PI [6]; 20° C.)?
A: Its value is 0%.

Q: What about the “Percent Eluted by Fraction, Flow” value (A1PI [6]; 20° C.) of the same substance?
A: Its value is 69%.
